The text below walks through data of patent US11591404B2, “Treatment of cancer using a CD123 chimeric antigen receptor” (Novartis AG, priority 2014, dated 2023).

The test system of one assay is cynomolgus CD123. Briefly: Cross-reactivity of anti-CD123 clones against cynomolgus CD123. The assay is classed as binding.
Assay [1] has as its system MOLM14 (CD123+ tumor cells). In words: CD107a degranulation of CART cells, 2 hours. The following applies: 2-hr in vitro assay, CD123+ targets. The assay is classed as cell-based. The protocol:
To assess degranulation, CART cells (NVS 2-4, 1172 and 1176 clones) were thawed, rested overnight at a concentration of 2e^6 cells/ml in T cell media. Cells were then counted and resuspended at 1e^6 cells/ml the following day. Tumor target cells (TCM, PMA/iono, MOLM14 or JURKAT) were resuspended at 5e^6 cells/ml. Cells were plated at a ratio of 1e^5 T cell: 5e^5 tumor cell in 48 well plates and incubated for 2 hours in the presence of anti-CD107a PECy7, anti-CD49d purified, and anti-CD28 purified antibodies. Cells were then harvested, stained with anti-CD3 APC and acquired using BD LSR Fortessa (FIG. 7).

B1: CAR123-3: fully human anti-CD123 scFv CAR with 4-1BB and CD3zeta; CAR amino acid SEQ ID NO: 100 (protein, listed as Homo sapiens)
chain: MALPVTALLLPLALLLHAARPQVQLVQSGAEVKKPGASVKVSCKASGYIFTGYYIHWVRQAPGQGLEWMGWINPNSGGTNYAQKFQGRVTMTRDTSISTAYMELSGLRSDDPAVYYCARDMNILATVPFDIWGQGTLVTVSSGGGGSGGGGSGGGGSDIQLTQSPSSLSASVGDRVTITCRASQSISSYLNWYQQKPGKAPKLLIYAASSLQSGVPSRFSGSGSGTDFTLTVNSLQPEDFATYYCQQGDSVPLTFGGGTKVEIKTTTPAPRPPTPAPTIASQPLSLRPEACRPAAGGAVHTRGLDFACDIYIWAPLAGTCGVLLLSLVITLYCKRGRKKLLYIFKQPFMRPVQTTQEEDGCSCRFPEEEEGGCELRVKFSRSADAPAYKQGQNQLYNELNLGRREEYDVLDKRRGRDPEMGGKPRRKNPQEGLYNELQKDKMAEAYSEIGMKGERRRGKGHDGLYQGLSTATKDTYDALHMQALPPR
On to B1, for which the “cross-reactivity against cynomolgus CD123” value (“cross-reactivity” for short) with cynomolgus CD123 was “cross-reactive against cynomolgus CD123”.

B2: 1176: murine CD123 CAR construct, CD123 4-1BBCD3z-CAR (26292), SEQ ID NO: 708, described in PCT/US2014/017328 (protein)
chain: MALPVTALLLPLALLLHAARPGSDVQITQSPSYLAASPGETITINCRASKSISKDLAWYQEKPGKTNKLLIYSGSTLQSGIPSRFSGSGSGTDFTLTISSLEPEDFAMYYCQQHNKYPYTFGGGTKLEIKGGGGSGGGGSSGGGSQVQLQQPGAELVRPGASVKLSCKASGYTFTSYWMNWVKQRPDQGLEWIGRIDPYDSETHYNQKFKDKAILTVDKSSSTAYMQLSSLTSEDSAVYYCARGNWDDYWGQGTTLTVSSASSGTTTPAPRPPTPAPTIASQPLSLRPEACRPAAGGAVHTRGLDFACDIYIWAPLAGTCGVLLLSLVITLYCKRGRKKLLYIFKQPFMRPVQTTQEEDGCSCRFPEEEEGGCELRVKFSRSADAPAYKQGQNQLYNELNLGRREEYDVLDKRRGRDPEMGGKPRRKNPQEGLYNELQKDKMAEAYSEIGMKGERRRGKGHDGLYQGLSTATKDTYDALHMQALPPR
With B2, the “cross-reactivity” value in the assay with cynomolgus CD123 was “cross-reactive against cynomolgus CD123”. Moreover, in assay [1], the “T cell degranulation (CD107a)” value was determined as 65%.

B3: CAR123-4: fully human anti-CD123 scFv CAR with 4-1BB and CD3zeta; CAR amino acid SEQ ID NO: 101 (protein, listed as Homo sapiens)
chain: MALPVTALLLPLALLLHAARPQVQLQQSGAEVKKSGASVKVSCKASGYTFTDYYMHWLRQAPGQGLEWMGWINPNSGDTNYAQKFQGRVTLTRDTSISTVYMELSRLRSDDTAVYYCARDMNILATVPFDIWGQGTMVTVSSASGGGGSGGRASGGGGSDIQMTQSPSSLSASVGDRVTITCRASQSISSYLNWYQQKPGKAPKLLIYAASSLQSGVPSRFSGSGSGTDFTLTISSLQPEDFATYYCQQGDSVPLTFGGGTKVEIKTTTPAPRPPTPAPTIASQPLSLRPEACRPAAGGAVHTRGLDFACDIYIWAPLAGTCGVLLLSLVITLYCK
On to B3, for which, in the assay on cynomolgus CD123, the “cross-reactivity” value is on record as “cross-reactive against cynomolgus CD123”.

B4: 1172: murine CD123 CAR construct, CD123 4-1BBCD3z-CAR, SEQ ID NO: 707, described in PCT/US2014/017328 (protein)
chain: MALPVTALLLPLALLLHAARPGSDIVLTQSPASLAVSLGQRATISCRASESVDNYGNTFMHWYQQKPGQPPKLLIYRASNLESGIPARFSGSGSRTDFTLTINPVEADDVATYYCQQSNEDPPTFGAGTKLELKGGGGSGGGGSSGGGSQIQLVQSGPELKKPGETVKISCKASGYIFTNYGMNWVKQAPGKSFKWMGWINTYTGESTYSADFKGRFAFSLETSASTAYLHINDLKNEDTATYFCARSGGYDPMDYWGQGTSVTVSSASSGTTTPAPRPPTPAPTIASQPLSLRPEACRPAAGGAVHTRGLDFACDIYIWAPLAGTCGVLLLSLVITLYCKRGRKKLLYIFKQPFMRPVQTTQEEDGCSCRFPEEEEGGCELRVKFSRSADAPAYKQGQNQLYNELNLGRREEYDVLDKRRGRDPEMGGKPRRKNPQEGLYNELQKDKMAEAYSEIGMKGERRRGKGHDGLYQGLSTATKDTYDALHMQALPPR
As to B4, the “cross-reactivity” value with cynomolgus CD123 is on record as “is not”.
